US20060110401A1, “Mixture of peptides from c and ns3 proteins of the hepatitis c virus and applications thereof” (priority 2002, published 2006)
pIC50: −log10 of the molar value.

Assays:
[1] = biological target: HLA-DR11 (DRB1*1101) (human); assay: competition binding
[2] = biological target: HLA-DR15 (DRB1*1501) (human); assay: competition binding
[3] = biological target: HLA-DRB4 (DRB4*0101) (human); assay: competition binding
[4] = biological target: HLA-DR3 (DRB1*0301) (human); assay: competition binding
[5] = biological target: HLA-DRB3 (DRB3*0101) (human); assay: competition binding
[6] = biological target: HLA-DR4 (DRB1*0401) (human); assay: competition binding
[7] = biological target: HLA-DR7 (DRB1*0701) (human); assay: competition binding
[8] = biological target: HLA-DRB5 (DRB5*0101) (human); assay: competition binding
[9] = biological target: HLA-DR1 (DRB1*0101) (human); assay: competition ELISA, purified HLA II; tracer biotinylated HA 306-318

9N 1036-1055 (from UniProt P26664 1036-1055)
pIC50 [1]: 6.79 | pIC50 [2]: 5.00 | pIC50 [3]: 6.82 | pIC50 [4]: 5.22 | pIC50 [5]: 4.46 | pIC50 [6]: 7.22 | pIC50 [7]: 5.90 | pIC50 [8]: 8.00

28N 1524-1553 (peptide; other documents disagree on this pair)
pIC50 [9]: 8.70
